Target: huTIM-3 Fc (R&D; cat.no. 2365-TM) (human) (UniProt Q8TDQ0)
Assay: Galectin-9 blocking ELISA: coated Galectin-9 (competitor), 0.1875 ug/ml huTIM-3 Fc with negative control antibody; signal is huTIM-3 Fc bound

Chain of huTIM-3 Fc (R&D; cat.no. 2365-TM) (human) (Q8TDQ0 22-200 limits assumed): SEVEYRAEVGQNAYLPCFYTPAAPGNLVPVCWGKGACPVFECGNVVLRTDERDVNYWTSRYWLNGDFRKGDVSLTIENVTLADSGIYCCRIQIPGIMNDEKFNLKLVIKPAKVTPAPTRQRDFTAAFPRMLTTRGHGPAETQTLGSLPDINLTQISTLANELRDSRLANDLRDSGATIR

negative control antibody (Ctrl mAb)
OD: 1.15 OD450

Source: patent US20230357407A1
